Experimental data published in patent US20070020258A1.

target: membrane IgE on U266 B1 cells (human) (UniProt P01854); assay: FACS, U266 B1 cells

Binder	EC50
MAE11 (antibody, V domains shown) VH: DVQLQESGPGLVKPSQSLSLACSVTGYSITSGYSWNWIRQFPGNKLEWMGSITYDGSSNYNPSLKNRISVTRDTSQNQFFLKLNSATAEDTATYYCARGSHYFGHWHFAVWGAGTTVTVSS VL: DIVLTQSPASLAVSLGQRATISCKASQSVDYDGDSYMNWYQQKPGQPPILLIYAASYLGSEIPARFSGSGSGTDFTLNIHPVEEEDAATFYCQQSHEDPYTFGAGTKLEIK	0.15 µg/mL
MAE13 (antibody, V domains shown) VH: DVQLQESGPGLVKPSQSLSLTCTVTGYTITSDNAWNWIRQFPGNKLEWMGYINHSGTTSYNPSLKSRISITRDTSKNQFFLQLNSVTTEDTATYYCAWVVAYAMDYWGQGTSVTVSS VL: DIVMTQSQKFMSTSVGDRVSVTCKASQNVSSNVAWYQQKPGQSPKALIYSASYRYSGVPDRFTGSGSGTDFTLTISNVQSEDLAEYFCQQYYTYPLYTFGGGTKLEIKR	1 µg/mL
MAE15 (antibody, V domains shown) VH: DVQHQESEPDLVKPSQSLSLTCTVTGYSITSGYNRHWIRQFPGNKLEWMGYIHYSGSTNYNPSLKRRISITRDTSKNQFFLQLNSVTTEDTATYYCARGSIYYYGSRYRYFDVWGAGTTVTVSS VL: DIQLTQSPASLAVSLGQRATISCKASQSVDYDGDSYMNWYQQKPGQPPKLLIYAASNLESGIPARFSGSGSGTDFTLNIHPVEEEDAATYYCQQSNEDPFTFGAGT	6 µg/mL
